The values that follow come from US20210284746A1 (NGM BIOPHARMACEUTICALS, published 2021).

First the molecules themselves.
B1: 13G9 (antibody, V domains shown)
VH: QVQLQQSGAELVRPGTSVKISCKASGYTFTNYWLGWVKQRPGHGLEWIGDIYPGGDYNNYNGKFKGKATLTADTSSSTAYIQLSSLTSEDSAVYFCVRSDDGYSWGQGTTLTVSS
VL: DVLMTQTPLSLPVSLGDQASISCRSSQSIVDSYGNTYLEWYQQKPGQSPTLLIYKVSNRFAGVPDRFSGSGSGTDFTLKISRVEAEDLGVYYCFQGSHIPWTFGGGTKVEIK
notes: Mouse hybridoma antibody, purified; also called anti-GCGR antibody 13G9
B2: 6B5 (antibody, V domains shown)
VH: QVQLQQSGTELVRPGTSVKISCKASGFTFTNHWLGWVKQRPGHGLEWIGDIYPGGYYINYNEKFKGKATLTADTSSSTAYMQLSSLTSEDSAVYFCARHTNYGSDYWGQGTTLTVSS
VL: DVLMTQIPLSLPVSLGDQASISCRSSQSIVDSYGNTFLEWYLQKPGQSPKLLIYKVSNRLSGVPDRFSGTGAGTDFTLKISRVEAEDLGIYYCFQGSHVPWTFGGGTKLEIK
notes: Mouse hybridoma antibody, purified; also called anti-GCGR antibody 6B5
B3: 14F4 (antibody, V domains shown)
VH: QVQLQQSGAELVRPGTSVNMSCKATGYTFTNYWIGWVKQRPGHGLEWIGDIFPGGFYSNYNEKFKGKATLTTDTSSSTGYMQLSSLTSEDSAIYYCARIWDRGFDYWGQGTTLTVSS
VL: DVLMTQSPLSLPVSLGDQASISCRSSQSIVDSYGNTYLEWYLQKPGQSPKLLIYKVSNRFSGVPDRFSGSGSGTDFTLKISRVEAEDRGLYYCFQGSHVPYTFGGGTKLEIK
notes: Mouse hybridoma antibody, purified; also called anti-GCGR antibody 14F4

For this experiment, the target named is T1, soluble human GCGR extracellular domain (human, UniProt P47871 26-136, limits assumed).
T1 construct: also called soluble GCGR; glucagon receptor extracellular domain
T1 sequence (P47871 26-136 limits assumed): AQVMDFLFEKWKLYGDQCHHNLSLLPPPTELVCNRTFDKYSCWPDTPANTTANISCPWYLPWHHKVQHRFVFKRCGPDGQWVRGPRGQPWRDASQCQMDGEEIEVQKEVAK
Nature of the experiment: SPR (Biacore), purified antibody re-tested; format as described for the screen: antibody captured by anti-mouse Fc, soluble human GCGR extracellular domain as analyte, 25 C. Here is the method:
In addition, supernatants were screened for binding to human GCGR using a Biacore SPR system. Briefly, anti-mouse Fc antibody (Sigma-Aldrich) was immobilized on all four flow cells of a CM5 chip using amine coupling reagents (GE Healthcare LifeSciences). Hybridoma supernatants were diluted three-fold with PBS-P buffer (PBS containing 0.005% P20-PBS-P) and injected for 30 seconds over flow cells 2, 3 and 4 to capture the test antibodies and using flow cell 1 as a reference. The next step was an injection of soluble human GCGR extracellular domain (100 nM in PBS-P buffer) at a flow rate of 50 μL/min and monitoring of the binding kinetics at 25° C. Kinetic data were collected over time and fit using the simultaneous global fit equation to yield affinity constants (KD values) for each antibody.
(In general: Surface plasmon resonance follows binding to a sensor surface in real time, without labels.)
Regarding B1, the Kd (commonly a measure of binding affinity in units of concentration) was determined as 0.2 nM.
B2 came in with a dissociation constant (Kd) of 0.2 nM. That is a sub-nanomolar value.
Molecule B3 displayed a Kd of 0.6 nM.
